Series [1] deals with T1, hDcr-CΔRBD fragment of human Dicer (Homo sapiens, UniProt Q9UPY3 SEQ:1235-1844).
T1 chain: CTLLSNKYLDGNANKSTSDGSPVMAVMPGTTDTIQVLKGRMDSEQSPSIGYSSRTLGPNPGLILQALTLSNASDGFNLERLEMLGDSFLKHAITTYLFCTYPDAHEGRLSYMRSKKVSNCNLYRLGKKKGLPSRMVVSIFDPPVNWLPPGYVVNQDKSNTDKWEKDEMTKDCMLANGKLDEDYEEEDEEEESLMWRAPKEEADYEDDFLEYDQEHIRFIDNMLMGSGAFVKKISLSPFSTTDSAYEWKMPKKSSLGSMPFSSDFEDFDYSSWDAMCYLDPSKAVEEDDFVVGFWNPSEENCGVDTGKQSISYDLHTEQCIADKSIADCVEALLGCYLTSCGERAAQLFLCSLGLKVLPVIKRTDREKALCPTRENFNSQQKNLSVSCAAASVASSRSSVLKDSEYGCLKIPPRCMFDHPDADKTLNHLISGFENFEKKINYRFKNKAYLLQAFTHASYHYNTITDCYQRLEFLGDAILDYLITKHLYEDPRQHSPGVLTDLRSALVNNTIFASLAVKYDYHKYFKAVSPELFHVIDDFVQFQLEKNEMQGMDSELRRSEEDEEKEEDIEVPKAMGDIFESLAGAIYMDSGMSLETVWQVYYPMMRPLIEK
Kind of series: filter; out of detectable limit. The following applies: tags: expressed from pHMGWA-His6-MBP vector, E. coli. Here is the method: (§1) Filter binding assays of hDcr and different hDcr fragments were performed in the same way as previously described (7). Briefly, serial dilutions of hDcr protein were incubated in a buffer containing 20 mM Tris-HCl (pH 7.5), 25 mM NaCl, 5 mM EDTA, 1 mM dithiothreitol (DTT), 1% glycerol and ˜0.5-1 nM (1500 CPM) of 5′-end ³²P-labeled duplex RNA substrate (one strand was labeled) at room temperature for 60 min in a 30 μl of total volume. Following incubation, a 25 μl aliquot of each reaction was applied to a dot-blot apparatus equipped with three membranes: Tuffryn, Protran and Nytran (from top to bottom). After drying, the bound (on Protran) or free (on Nytran) RNAs were quantified by a Phosphorimager (GE Healthcare). Percent bound RNA, calculated as the ratio of radioactivity detected on the Protran membrane over the total input radioactivity, was plotted as a function of protein concentration. Kd was determined by global fitting to the equation: kobsd=(kₘₐₓ[…]) (Kd+[Dicer])−1, where kobsd is the observed rate constant at a given protein concentration, kₘₐₓ is the maximal rate constant with saturating protein, and Kd is the protein concentration that provides half the maximal rate. Curve fitting was conducted with KaleidaGraph (Synergy Software, Reading, Pa.).
To establish the relationship between cleavage activity and substrate binding, nitrocellulose filter-binding assays were performed with three kinds of RNAs under non-cleavage conditions: substrate dsRNA ([…]), Dicer product-mimic dsRNA (19-bp) and a pre-miRNA (pre-hlet-7a-1).

For series [2], the target named is T2, hDcr-C (RNase IIIa/IIIb-dsRBD) fragment of human Dicer (Homo sapiens, UniProt Q9UPY3 SEQ:1235-1922).
T2 chain: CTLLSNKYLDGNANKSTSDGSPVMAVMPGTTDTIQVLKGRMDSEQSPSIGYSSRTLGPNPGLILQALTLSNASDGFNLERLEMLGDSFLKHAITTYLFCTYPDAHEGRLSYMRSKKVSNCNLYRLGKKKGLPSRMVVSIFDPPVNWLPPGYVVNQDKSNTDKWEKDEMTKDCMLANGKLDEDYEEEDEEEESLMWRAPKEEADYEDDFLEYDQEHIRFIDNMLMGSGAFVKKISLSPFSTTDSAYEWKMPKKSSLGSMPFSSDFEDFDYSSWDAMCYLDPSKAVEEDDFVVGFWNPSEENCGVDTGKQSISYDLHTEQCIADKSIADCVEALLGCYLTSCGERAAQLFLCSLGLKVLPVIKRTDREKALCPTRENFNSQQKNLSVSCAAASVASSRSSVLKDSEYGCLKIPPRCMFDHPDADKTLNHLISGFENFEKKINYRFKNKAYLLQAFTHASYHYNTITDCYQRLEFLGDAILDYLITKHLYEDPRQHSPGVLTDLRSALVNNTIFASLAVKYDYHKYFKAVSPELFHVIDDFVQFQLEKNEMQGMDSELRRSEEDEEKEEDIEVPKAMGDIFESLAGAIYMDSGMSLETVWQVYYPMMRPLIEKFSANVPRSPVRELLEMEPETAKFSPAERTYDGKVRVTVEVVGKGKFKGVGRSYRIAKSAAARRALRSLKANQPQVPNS
Briefly: filter; out of detectable limit; almost no binding. The following applies: tags: expressed from pHMGWA-His6-MBP vector, E. coli; label: 5'-32P; hairpin pre-miRNA, 73 nt. The method, then:
as §1, with “Pa.). […]” for “Pa.).”

The target in series [3] is T3, DP, tandem DUF283-PAZ domains of human Dicer (605-1068), bacterially expressed.
T3 chain: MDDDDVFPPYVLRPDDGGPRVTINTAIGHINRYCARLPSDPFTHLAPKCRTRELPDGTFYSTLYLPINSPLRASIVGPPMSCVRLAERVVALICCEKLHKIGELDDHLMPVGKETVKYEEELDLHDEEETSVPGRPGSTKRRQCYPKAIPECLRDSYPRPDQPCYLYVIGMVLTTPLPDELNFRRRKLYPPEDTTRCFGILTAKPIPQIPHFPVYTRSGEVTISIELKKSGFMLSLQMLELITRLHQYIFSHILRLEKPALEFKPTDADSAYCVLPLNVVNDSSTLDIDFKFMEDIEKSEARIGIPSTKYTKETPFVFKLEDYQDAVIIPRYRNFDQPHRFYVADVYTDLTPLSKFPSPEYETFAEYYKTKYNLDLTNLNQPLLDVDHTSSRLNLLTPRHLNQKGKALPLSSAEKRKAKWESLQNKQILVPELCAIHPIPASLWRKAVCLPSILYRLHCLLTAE

The target of series [4] is T4, hDcr-N, N-terminal fragment of human Dicer (1-1068; ATPase/hel, DUF283 and PAZ domains), co-expressed in Sf9 … (human, UniProt Q9UPY3 1-1068).
T4 construct: Co-expressed with hDcr-C in baculovirus-infected Sf9 cells; It could not be expressed alone
T4 sequence: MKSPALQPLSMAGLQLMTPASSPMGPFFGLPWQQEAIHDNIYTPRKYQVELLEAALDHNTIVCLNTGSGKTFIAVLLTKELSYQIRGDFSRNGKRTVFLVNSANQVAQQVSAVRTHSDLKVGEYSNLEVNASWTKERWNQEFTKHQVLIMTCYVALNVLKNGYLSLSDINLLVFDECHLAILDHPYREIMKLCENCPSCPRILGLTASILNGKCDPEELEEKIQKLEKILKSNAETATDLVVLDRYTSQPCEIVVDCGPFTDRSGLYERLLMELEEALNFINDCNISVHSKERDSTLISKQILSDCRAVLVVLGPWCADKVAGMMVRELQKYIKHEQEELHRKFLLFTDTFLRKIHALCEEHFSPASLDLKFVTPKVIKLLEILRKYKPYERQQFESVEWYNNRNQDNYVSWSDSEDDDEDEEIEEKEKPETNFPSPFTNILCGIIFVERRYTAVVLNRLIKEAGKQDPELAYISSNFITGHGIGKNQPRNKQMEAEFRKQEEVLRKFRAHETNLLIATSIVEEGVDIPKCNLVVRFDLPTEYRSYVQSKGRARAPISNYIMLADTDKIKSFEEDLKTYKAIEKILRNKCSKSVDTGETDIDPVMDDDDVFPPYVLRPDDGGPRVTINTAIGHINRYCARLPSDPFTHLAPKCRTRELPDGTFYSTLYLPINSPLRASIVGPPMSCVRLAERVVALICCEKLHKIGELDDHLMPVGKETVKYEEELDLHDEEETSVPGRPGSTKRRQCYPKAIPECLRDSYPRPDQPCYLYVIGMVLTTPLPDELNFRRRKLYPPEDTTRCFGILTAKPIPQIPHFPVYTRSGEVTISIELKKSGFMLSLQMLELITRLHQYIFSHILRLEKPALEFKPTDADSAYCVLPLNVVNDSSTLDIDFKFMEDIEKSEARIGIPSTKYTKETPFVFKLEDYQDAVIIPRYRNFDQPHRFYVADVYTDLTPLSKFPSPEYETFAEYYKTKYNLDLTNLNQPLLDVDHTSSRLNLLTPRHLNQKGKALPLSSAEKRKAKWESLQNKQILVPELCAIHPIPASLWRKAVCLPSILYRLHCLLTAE
Briefly: co-expression in Sf9 cells, co-purification.

B1: 37ab (dsRNA)
RNA 1: UGAGGUAGUAGGUUGUAUAGUUUGAAAGUUCACGAUU
RNA 2: UCGUGAACUUUCAAACUAUACAACCUACUACCUCAUU
B1: the binding result in series [1] (label: 5'-32P on one strand (37a), perfectly matched 35-bp duplex) is recorded as “no binding”.

B2: pre-hlet-7a-1 (ssRNA)
RNA: UGAGGUAGUAGGUUGUAUAGUUUUAGGGUCACACCCACCACUGGGAGAUAACUAUACAAUCUACUGUCUUACC
For the molecule B2, the binding result in series [2] is “no binding”; in series [1] (label: 5'-32P, hairpin pre-miRNA, 73 nt), “no binding”.

B3: hDcr-C, C-terminal fragment of human Dicer (1235-1922; two RNase III domains and C-terminal dsRBD), co-expressed in Sf9 cells (enzyme)
chain: CTLLSNKYLDGNANKSTSDGSPVMAVMPGTTDTIQVLKGRMDSEQSPSIGYSSRTLGPNPGLILQALTLSNASDGFNLERLEMLGDSFLKHAITTYLFCTYPDAHEGRLSYMRSKKVSNCNLYRLGKKKGLPSRMVVSIFDPPVNWLPPGYVVNQDKSNTDKWEKDEMTKDCMLANGKLDEDYEEEDEEEESLMWRAPKEEADYEDDFLEYDQEHIRFIDNMLMGSGAFVKKISLSPFSTTDSAYEWKMPKKSSLGSMPFSSDFEDFDYSSWDAMCYLDPSKAVEEDDFVVGFWNPSEENCGVDTGKQSISYDLHTEQCIADKSIADCVEALLGCYLTSCGERAAQLFLCSLGLKVLPVIKRTDREKALCPTRENFNSQQKNLSVSCAAASVASSRSSVLKDSEYGCLKIPPRCMFDHPDADKTLNHLISGFENFEKKINYRFKNKAYLLQAFTHASYHYNTITDCYQRLEFLGDAILDYLITKHLYEDPRQHSPGVLTDLRSALVNNTIFASLAVKYDYHKYFKAVSPELFHVIDDFVQFQLEKNEMQGMDSELRRSEEDEEKEEDIEVPKAMGDIFESLAGAIYMDSGMSLETVWQVYYPMMRPLIEKFSANVPRSPVRELLEMEPETAKFSPAERTYDGKVRVTVEVVGKGKFKGVGRSYRIAKSAAARRALRSLKANQPQVPNS
Regarding B3, the “RNA cleavage assay (37ab dsRNA), size pattern of the products” value in series [3] was “addition of the DP polypeptide to the hDcr-C cleavage reaction led to RNA products similar to those produced by full-length Dicer”. Besides, the binding result in series [4] is listed as “binds”.

Source of the values: US20130196383A1, “Method of Producing Dicer” (published 2013).
